In article PMC11686378:

Molecular target: Replication Protein A (RPA) heterotrimer from Pyrococcus abyssi, wild type (Pyrococcus abyssi)
Experiment: BLI; RPA or RPA^ΔWH nucleoprotein filaments on a 3'-TEG-biotin 50-nt ssDNA held on streptavidin sensors; PriSL (1.56-100 nM) or PolD (15.62-1000 nM) in solution; steady-state analysis; 25 °C, buffer E with 0.2 mg/ml BSA

Kd: 24 nM
B1: DNA primase PriSL (PriS-PriL heterodimer) from P. abyssi, in solution (complex)
chain 1: MLLREVTKEERKEFYSNEWNAKQIPDFILQNLDKREFGFDHTGEGPSDRKNSYTDVRDLEDYIKATAPYAVYSSVAFYEKPQEMEGWLGAELVFDIDAKDLPLRRCNHEPGKVCPICLNDAKEIARDTLIVLKEELGFEDVHVVYSGRGYHIRVMDGWALSLDSKSRERILSFISASEIEDHSEFRKMLLERRGWFVLNHGYPRVFRLRFGYFILRVKVEHLINFGIRKNIAKRILDNKETIYEEFVRKGILAAFPDGVGIESLAKLFALSTRFSKAYFDGRVTVDLKRILRLPSTLHSKVGLIAKYIGNNERDVMRFNPFKHAVPKFRRKEVKEEYKRFLEENF
chain 2: MLDPFSEKAKELLKEFGSINDFLNSIPRIVDVEEVIERVKIASDRKLLEGFVDIEDIKDLAQFYALLGALSYSPYGLELELVKKANILLYSERIRREKEIRPEEISLRINKAIEFPIDDLKKIERVFGKLPEYTIHLAEFLDLIPGERLSEYYIYNGNVYLRKEDLIKVWMKAFERNIEKSVNMLYEIRDELPGFFREVLGGIKEVAEQEFGKSGEVKAGTLRPDLFPPCVKNALKGVPQGLRNYAITVLLTSFLSYARICPNPPRRNVRVKDCIDDIRIITDEILPLIIEAANRCSPPLFEDQPNEIKNIWYHLGFGYTANPKLEDSGNSTWYFPPNCDKIRANAPQLCTPDKHCKYVRNPLTYYLRRLYLEGRKNASKGGNERGEKRVLQQ
